Experimental data reported in doi:10.1101/2021.12.07.471597 (bioRxiv, 2021).

What was measured:
VHH72.6-Fc = VHH72.6-Fc (llama); assay: BLI
VHH72.65-Fc = VHH72.65-Fc (llama); assay: BLI
VHH72.76-Fc = VHH72.76-Fc (llama); assay: BLI
VHH72.66-Fc = VHH72.66-Fc (llama); assay: BLI
VHH72.71-Fc = VHH72.71-Fc (llama); assay: BLI
VHH72-Fc = VHH72-Fc (llama); assay: BLI
[1] = target: biotinylated SARS-CoV-2 RBD (Wuhan) (SARS-CoV-2, UniProt P0DTC2, biotin); assay: flow cytometry on cells

Measured: binding result

B1: SARS-CoV-1 RBD (domain or fragment)
chain: not shown
not listed: [1]
binds: all other assays above

B2: VHH72 displayed on yeast (VHH)
VHH: QVQLQESGGGLVQAGGSLRLSCAASGRTFSEYAMGWFRQAPGKEREFVATISWSGGSTYYTDSVKGRFTISRDNAKNTVYLQMNSLKPDDTAVYYCAAAGLGTVVSEWDYDYDYWGQGTQVTVSS
binds: [1]
